Source: patent publication US20240252641A1 (TCR2 THERAPEUTICS, published 2024)
Residue numbers refer to the chain shown, from its start. Each block holds one binder with its values, some of them ahead of it.

Columns and labels:
[1] = target: T1, CD70 on cells (CHO-CD70, JVM-3, U266, Raji, THP-1, T cells) (human, UniProt P32970 1-193); test: binding to CD70-expressing CHO cells with and without CD27-Fc
T1 construct: whole, on cells; also called cell-surface CD70
T1 sequence (looked up): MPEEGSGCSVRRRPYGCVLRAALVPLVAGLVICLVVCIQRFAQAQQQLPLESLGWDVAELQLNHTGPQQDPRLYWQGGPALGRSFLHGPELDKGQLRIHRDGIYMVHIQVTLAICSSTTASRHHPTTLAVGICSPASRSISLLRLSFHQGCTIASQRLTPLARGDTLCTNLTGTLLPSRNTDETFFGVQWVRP
Method in brief: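 Anti-CD70 antibodies and CD27-Fc were applied to CHO cells with CD70 attached to the cell surface, in four set-ups. Each was applied alone; antibody was premixed with CD27-Fc; or cells were first coated with CD27-Fc or with antibody, washed, and then given the mixture. The binding signal was then measured in each set-up.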

[2] = target: T1, CD70 on cells (CHO-CD70, JVM-3, U266, …); test: on JVM-3 cells
[3] = target: T1, CD70 on cells (CHO-CD70, JVM-3, U266, …); test: on Raji cells
[4] = target: T1, CD70 on cells (CHO-CD70, JVM-3, U266, …); test: on U266 cells
CD70 [5] = target: T2, CD70 (UniProt P32970 39-193, limits assumed); test: Octet (BLI); mAb binding to CD70 with CD27 (competitor CD27)
T2 construct: also called CD70 (100 nM)
T2 sequence (looked up): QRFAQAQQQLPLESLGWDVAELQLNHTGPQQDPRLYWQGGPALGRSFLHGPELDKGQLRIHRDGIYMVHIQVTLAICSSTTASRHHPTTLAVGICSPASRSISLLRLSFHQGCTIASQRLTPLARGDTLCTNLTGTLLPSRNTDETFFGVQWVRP

CD70 [6] = target: T2, CD70; test: Octet (BLI); hybridoma mAb, CD70 at 100 nM

binding result [1]: binds
B1: R3P15F6 VHH (VHH)
VHH: QVQLQESGGGLVQPGGSLRLSCVASGFTLDKYAIGWFRQAPGKELEGVSCITSSSGVVKYADSVKGRFIISRDNTNNRAFLQMSSLKPEDTAVYYCAAAGPPDDCSVPGYYGLNYWGKGTQVTVSS

cell binding [2]: 31600
cell binding [3]: 12100
cell binding [4]: 30600
B2: 2F1 (antibody, V domains shown)
VH: EVQLVESGGVVVQPGGSLRLSCAASGFTFDDYTMHWVRQAPGKGLEWVSLVSWDGGSTYYADSVKGRFTTSRDNSKKFLYLQMNRLRTEDTALYFCAIDRAYRPYYYYHMDVWGKGTTVTVSS
VL: not shown
notes: alloy mouse hybridoma antibody; also called 2F1F7

CD27:CD70 Interaction Neutralization of mAb Binding (CD70 [5]): 0.0275
Kd (CD70 [6]): 6600 pM
Response (CD70 [6]): 0.698
koff (CD70 [6]): 0.000555 s⁻¹
kon (CD70 [6]): 84100 M⁻¹ s⁻¹
B3: 2F1 (2F1F7) (antibody, V domains shown)
VH: B2 VH
VL: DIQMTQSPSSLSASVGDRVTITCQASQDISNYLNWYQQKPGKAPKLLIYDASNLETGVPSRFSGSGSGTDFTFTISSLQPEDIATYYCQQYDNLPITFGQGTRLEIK
notes: IgG in hybridoma supernatant; The variable domains exist only inside scFv entries 1215/1216

cell binding [2]: 322000
cell binding [3]: 103000
cell binding [4]: 310000
B4: 4G7 (antibody, V domains shown)
VH: QVQLVESGGGVVQPGRSLRLSCAASGFTFSSYGLHWVRQAPGKGLDWVAVIWYDGSNKYYVDSVKGRFTISRDNSMNTLFLQMNSLRAEDTAVYYCARDEAAAAGAFDIWGQGTMVTVSS
VL: DIQLTQSPSFLSASVGDRVTITCRASQGISSYLAWYQQKPGKAPKLLIYAASTLQSGVPSRFSGSGSGTEFTLTISSLQPEDFATYYCQQLNYYSITFGQGTRLEIK
notes: alloy mouse hybridoma antibody; also called 4G7E8

CD27:CD70 Interaction Neutralization of mAb Binding (CD70 [5]): 0.0429
Kd (CD70 [6]): 1280 pM
Response (CD70 [6]): 0.357
koff (CD70 [6]): 0.000167 s⁻¹
kon (CD70 [6]): 130000 M⁻¹ s⁻¹
B5: 4G7 (4G7E8) (antibody, V domains shown)
VH: B4 VH
VL: B4 VL
notes: IgG in hybridoma supernatant; The variable domains exist only inside scFv entries 1213/1214

CD27:CD70 Interaction Neutralization of mAb Binding (CD70 [5]): 0.0585
Kd (CD70 [6]): 3.42 pM
Response (CD70 [6]): 0.409
koff (CD70 [6]): 3.3e-07 s⁻¹
kon (CD70 [6]): 96400 M⁻¹ s⁻¹
B6: 13G6 (antibody, V domains shown)
VH: QVQLVESGGGVVQPGKSLRLSCAASGFTFSNYGIHWVRQAPGKGLEWVAVIWYDGSYKYYADSVKGRFTISRDNSKNTLYLQMNSLRAEDTALYYCARDTVDTYGSFDYWGQGTLVTVSS
VL: B4 VL with C23G, K45N, L91H, Y93R, S95P
notes: IgG in hybridoma supernatant; also called 13G6E8

CD27:CD70 Interaction Neutralization of mAb Binding (CD70 [5]): 0.0777
Kd (CD70 [6]): 2.46 pM
Response (CD70 [6]): 0.429
koff (CD70 [6]): 3.36e-07 s⁻¹
kon (CD70 [6]): 137000 M⁻¹ s⁻¹
B7: 9A11 (9A11E8) (antibody, V domains shown)
VH: QVQLVESGGGVVQPGRSLRLSCAASGFTFSNYGMYWVRQAPGKGLEWVAVIWYDGSKKYYGDSVKGRFTISRDNSKNTLYLQMNSLRAEDTAVYYCARDEDTVMASFDYWGQGTLVTVSS
VL: B4 VL with G28D, S31I, K45Q, Y87S, Y93S, S95P, Q100G, R103K, L104V
notes: IgG in hybridoma supernatant

binding result [1]: binds
B8: R2P14A12 VHH (VHH)
VHH: QVQLQESGGGLVQPGGSLRLSCVASGFTLDRYAVGWFRQAPGKELEGVSCISSSGDIIKYADSAKGRFTIARDNAKNTAYLQMNSLKPEDTAVYYCTAADPKDDCSVPGYYGLNYWGKGTQVTVSS
notes: tested as VHH-His

cell binding [2]: 401000
cell binding [3]: 139000
cell binding [4]: 324000
B9: 9A1 (antibody, V domains shown)
VH: QVQLVQSGAEVKKPGASVKVSCKASGYSFTGYYMHWVRQAPGQGLEWMGWINPKSGGTSYAQQFQGRVTMTRDTSMSTVYMELTRLRADDTAVYYCARLYYSGWYGDYWGQGTLVTVSS
VL: DIQMTQSPSSLSASVGDRVTITCQASQDINNYLNWYQQKPGKVPNLLIYDASNLETGVPSRFSGSGSGTDFTFTISSLQPEDIATYYCQQYNNPPITFGQGTRLEIK
notes: alloy mouse hybridoma antibody; also called 9A1H6

CD27:CD70 Interaction Neutralization of mAb Binding (CD70 [5]): 0.0553
Kd (CD70 [6]): 6.03 pM
Response (CD70 [6]): 0.434
koff (CD70 [6]): 5.28e-07 s⁻¹
kon (CD70 [6]): 87500 M⁻¹ s⁻¹
B10: 9A1 (9A1H6) (antibody, V domains shown)
VH: B9 VH
VL: B9 VL
notes: IgG in hybridoma supernatant

cell binding [2]: 234000
cell binding [3]: 85100
cell binding [4]: 213000
B11: 15F8 (antibody, V domains shown)
VH: EVQLVESGGGVVRPGGSLRLSCAASGFTFDDYGVSWVRQAPGRGLEWVSGINWNGGSTAYADSVKGRFTISRDSAKNSLYLQMDSLRAEDTALYYCAREEGSYYVWYFDIWGRGTLVTVSS
VL: DIQMTQSPSSLSASVGDRVTITCRPSQSISNYLNWYQQKPGKAPKVLIYASFILQSGVPSRFGGSGSGTDFTLTISSLQPEDFATYYCQQSYSNPFTFGPGTKVDIK
notes: alloy mouse hybridoma antibody; also called 15F8D8; 15F8D9

CD27:CD70 Interaction Neutralization of mAb Binding (CD70 [5]): 0.0349
Kd (CD70 [6]): 4.81 pM
Response (CD70 [6]): 0.382
koff (CD70 [6]): 3.36e-07 s⁻¹
kon (CD70 [6]): 69800 M⁻¹ s⁻¹
B12: 15F8 (15F8D8) (antibody, V domains shown)
VH: B11 VH
VL: B11 VL
notes: IgG in hybridoma supernatant; also called 15F8D9

cell binding [2]: 121000
cell binding [3]: 38800
cell binding [4]: 106000
B13: 1E3 (antibody, V domains shown)
VH: QLQLQESGPGLVKPSETLSLTCTVSGASITSTSYYWNWIRQPPGKGLEWIGRISYSGSTYYNPSLKSRVTISVDTSKNQFSLKLSSVTATDTAVYYCARQIRYNWNPDTFDIWGQGTMVTVSS
VL: EIVMTQSPATLSVSPGERATLSCRASQSLNSNLAWYQQKPAQAPRLLIYGASTRATGIPARFSGSGSGTEFTLTISSLQSEDFAVYYCQQYDNWPLTFGGGTKVEIK
notes: alloy mouse hybridoma antibody; also called 1E3D9

CD27:CD70 Interaction Neutralization of mAb Binding (CD70 [5]): 0.102
Kd (CD70 [6]): 255 pM
Response (CD70 [6]): 0.506
koff (CD70 [6]): 3.88e-05 s⁻¹
kon (CD70 [6]): 152000 M⁻¹ s⁻¹
B14: 1E3 (1E3D9) (antibody, V domains shown)
VH: B13 VH
VL: B13 VL
notes: IgG in hybridoma supernatant

binding result [1]: binds
B15: R3aP4D6 VHH (VHH)
VHH: QVQLQESGGGLVQAGGSLRLSCAASKSIIRDNVMAWHRQAPGKQRELVAIINTGGSANVDDSVKGRFTISRDNAKNMVYLQMNNLKPEDTAVYYCNVYYRDLWGQGTQVTVSS

cell binding [2]: 8940
cell binding [3]: 7310
cell binding [4]: 8040
B16: 9B2 (antibody, V domains shown)
VH: QLQVVESGGGLMQPGGSLRLSCAASGFTFSGSAMSWVRQAPGKGLEWVSSIYSHSMYTYYADSVKSRFTISTDNAKNTLYLQMNSLKPDDTAVYYCAASSDYEGLFVSWGQGTQVTVSS
VL: QAVLTQPPSLSASPGSSVRLTCTLNSANSVGSYDISWYQQKAGSPPRYLLYYYSDSLSHQGSGVPSRFSGSTDASANAGLLLISGLQPEDEADYYCSAYNRGSHVFGGGTKLTVL
